Assay results taken from PMC4618444, “Evaluation and directed evolution for thermostability improvement of a GH 13 thermostable α-glucosidase from Thermus thermophilus TC11” (BMC Biotechnology, 2015).

What was measured:
purified protein = substrate: O=[N+]([O-])c1ccc(O[C@H]2O[C@H](CO)[C@@H](O)[C@H](O)[C@H]2O)cc1; assay: purified protein
[1] = substrate: OC[C@H]1O[C@@](CO)(O[C@H]2O[C@H](CO)[C@@H](O)[C@H](O)[C@H]2O)[C@@H](O)[C@@H]1O; assay: glucose release, glucose oxidase assay; assay type: biochemical, Thermus thermophilus; conditions: 90 °C, citric acid-sodium phosphate buffer pH 5.0
[2] = substrate: OC[C@H]1O[C@H](O[C@H]2O[C@H](CO)[C@@H](O)[C@H](O)[C@H]2O)[C@H](O)[C@@H](O)[C@@H]1O; assay: glucose release, glucose oxidase assay; assay type: biochemical, Thermus thermophilus; conditions: 90 °C, citric acid-sodium phosphate buffer pH 5.0
[3] = optimal reaction conditions (90 °C, pH 5.0), substrate pNPG implied by context
[4] = 90 °C, citric acid-sodium phosphate buffer pH 5.0

Protein	Km (purified protein; [3]) [mM]	kcat (purified protein; [3]) [s⁻¹]	Km [1] [mM]	kcat [1] [s⁻¹]	kcat/Km [1] [M⁻¹ s⁻¹]	Km [2] [mM]	kcat [2] [s⁻¹]	kcat/Km [2] [M⁻¹ s⁻¹]	Km (purified protein; [4]) [mM]	kcat (purified protein; [4]) [s⁻¹]	kcat/Km (purified protein; [4]) [M⁻¹ s⁻¹]
TtAG (Thermus thermophilus; Q10Y) (protein) MWWKEAVIYYVYPRSFQDTNGDGVADVEGVRRRLPYLKSLGVDAIWLSPFYKSPMKDFGYDLADYCDVDPIFGTLQDFDRLLEEAHALGLRVLVDLVPNHTSSEHPWFLESRASRNSPKRDWYIWKDPAPDGGPPNNWQSFFGGPAWTLDEATGQYYLHQFLPEQPDLNWRNPEVREALYEVMRFWLRRGVDGFRVDVLWLLAEDLLFKDEPGNPDWRPGMWDRGRHLHIFTEDQPETYAYVREMRQVLDEFSEPGRERVMVGEIYLPYPQLLRYYQAGCHLPFNFHLIFRGLPDWRPENLARIVEEYESLLTRWDWPNWVLGNHDQPRLASRLGEAQARVGAMLLFTLRGTPTWYYGDEIGMKNGEIPPEKVQDPAALRQKDRLGEHQLPPGRDPERTPMQWDDTPFAGFSTVEPWLPVNPDYKTRNVAAQENDPRSMLHLVRRLIALRKDPDLLYGAYRTYRAREGVYAYLRGEGWLVAINLTEKEKALELPRGGRVVLTTHLDREERVGERLLLRPDEGVVVRLD	0.46	356.57	–	–	–	–	–	–	–	–	–
TtAG (Thermus thermophilus) (protein, trimer by DLS (184 kDa)) MWWKEAVIYQVYPRSFQDTNGDGVADVEGVRRRLPYLKSLGVDAIWLSPFYKSPMKDFGYDLADYCDVDPIFGTLQDFDRLLEEAHALGLRVLVDLVPNHTSSEHPWFLESRASRNSPKRDWYIWKDPAPDGGPPNNWQSFFGGPAWTLDEATGQYYLHQFLPEQPDLNWRNPEVREALYEVMRFWLRRGVDGFRVDVLWLLAEDLLFKDEPGNPDWRPGMWDRGRHLHIFTEDQPETYAYVREMRQVLDEFSEPGRERVMVGEIYLPYPQLLRYYQAGCHLPFNFHLIFRGLPDWRPENLARIVEEYESLLTRWDWPNWVLGNHDQPRLASRLGEAQARVGAMLLFTLRGTPTWYYGDEIGMKNGEIPPEKVQDPAALRQKDRLGEHQLPPGRDPERTPMQWDDTPFAGFSTVEPWLPVNPDYKTRNVAAQENDPRSMLHLVRRLIALRKDPDLLYGAYRTYRAREGVYAYLRGEGWLVAINLTEKEKALELPRGGRVVLTTHLDREERVGERLLLRPDEGVVVRLD	–	–	30.53	74.6	2460	19.96	140	7020	0.48	659	1.37e+06
